Drawing on publication PMC8274607, “A Derivative of the D5 Monoclonal Antibody That Targets the gp41 N-Heptad Repeat of HIV-1 with Broad Tier-2-Neutralizing Activity” (Journal of Virology, 2021), this text covers Kd for one molecule.

For orientation: Kd means a measure of binding affinity in units of concentration. Low readings indicate a tighter complex, high ones a looser complex.

This assay has as its target T1, covalent biotinylated CCIZN17 (synthetic IZ coiled coil fused to HIV-1 …).
T1 construct: also called NHR mimetic; mimetic of the NHR trimer
Put plainly: BLI; biotinylated CCIZN17 (200 nM) loaded on streptavidin biosensors to 0.4 nm, Octet RED96; Fab in solution at known concentrations, 4 min association, 4 min dissociation; PBS pH 7.4 with 0.1% BSA and 0.05% Tween 20. Conditions: both partners purified.

B1: D5_AR Fab (Fab, V domains shown)
VH: QVQLVQSGAEVRKPGASVKVSCKASGDTFSSYAISWVRQAPGQGLEWMGSIIPLFGTAAYAQKFQGRVTITADESTSTAYMELSSLRSEDTAIYYCARDNPTFGAADSWGKGTLVTVSS
VL: DIQMTQSPSTLSASIGDRVTITCRASEGIYHWLAWYQQKPGKAPKLLIYKASSLASGAPSRFSGSGSGTDFTLTISSLQPDDFATYYCQQYSNYPLTFGGGTKLEIK
notes: also called D5_H011_L0; source: Expi293F, transfected, purified (protein G agarose, SEC)
Consider B1, for which the Kd turned out to be 1.6 nM.
